# B1: Hairpin Ribozyme (parent)
# chain: GUCCUCUUUCACGUGCGCGUGAAAGAGAGAAGUGAACCAGAGAAACACACGUUGUGGUAUAUUACCUGGUA
# Variants of: B1
# Assay: self-cleavage, relative activity (ratio to wild type); higher = more cleavage; co-transcriptional
row,Variant,self-cleavage
1,A22G G34U,1.22
2,A22G G34A,0.987
3,A22G G34C,1.52
4,A22G G27U,0.262
5,A22G G27C,0.161
6,A22G U58A,0.657
7,A22U A45C,0.179
8,A22U A45G,0.225
9,A23C A24U,0.626
10,A23G U63A,0.113
11,A24G A41C,0.743
12,A23U A47G,0.11
13,A23U A47U,0.105
14,A23G A49U,0.227
15,A23G U58G,0.657
16,A22U C66A,0.209
17,A22U C66G,0.175
18,A24G C46U,0.0984
19,A23U G68U,0.197
20,A22G U52G,0.692
21,A22G U52C,0.791
22,A22U A30U,0.262
23,A24C G27U,0.284
24,A23C G54U,0.7

row,Variant,self-cleavage
1,A23C G54A,0.416
2,A24C C66G,0.0731
3,A24C C66A,0.187
4,A23U A24G,0.587
5,A24C U58C,1.11
6,A24G C65U,0.371
7,A24G C65A,0.706
8,A22G G56C,0.137
9,A24C C48A,0.172
10,A24C A49C,0.308
11,A23C G68C,0.138
12,A23C G68U,0.262
13,A23U C48U,0.118
14,A22G A71G,0.907
15,A22G A71U,0.702
16,A23U A41U,1.07
17,A22U G40C,0.122
18,A23C A45U,0.207
19,A24C U33C,0.16
20,A24G A30G,0.0908
21,A23G A31C,0.194
22,A23U A45G,0.129
23,A23U A39C,0.483
24,A23U G56C,0.174

row,Variant,self-cleavage
1,A24C C65A,0.922
2,A24C C65U,0.402
3,A24C C65G,0.296
4,A23U U58C,1.05
5,A23U U58G,0.663
6,A22G G54C,0.35
7,A23G G29U,0.164
8,A23C G40A,0.342
9,A23C G40U,0.175
10,A23C A39C,0.517
11,A22G A59G,0.212
12,A22U A35C,0.762
13,A22U A35G,0.84
14,A22U A35U,0.611
15,A23G A36G,0.933
16,A23G A36U,0.514
17,A24C G40A,0.335
18,A24C G40C,0.185
19,A22G A43C,0.158
20,A22G A43U,0.0762
21,A22G A43G,0.121
22,A23G G40U,0.278
23,A23G G40A,0.234
24,A22G G51U,0.957

row,Variant,self-cleavage
1,A22G G51A,1.05
2,A23C A44C,0.251
3,A23U C50A,0.277
4,A23U C50G,0.239
5,A23G A28C,0.641
6,A24C U63G,0.0877
7,A24C U63A,0.0496
8,A23G G32A,0.0936
9,A23C G29U,0.0906
10,A23C G29A,0.177
11,A22U U55A,0.255
12,A22U U55C,0.178
13,A24C G32C,0.131
14,A24C G32A,0.161
15,A22U A47G,0.115
16,A24C A44G,0.104
17,A23C U70A,0.872
18,A23C U70G,0.685
19,A22G G40U,0.181
20,A23G C66A,0.246
21,A23G C66G,0.265
22,A23G U53A,0.727
23,A23C G56C,0.191
24,A23U A35U,0.754

row,Variant,self-cleavage
1,A23G G34A,1.12
2,A23G A59U,0.0772
3,A23U U67A,0.237
4,A23U U67G,0.213
5,A23U U67C,0.229
6,A23C A71G,0.936
7,A23C A71C,1.16
8,A22U U53A,0.859
9,A22U U53C,0.897
10,A23U A28C,0.613
11,A23U A28U,0.674
12,A23U G54C,0.551
13,A23U G54U,0.538
14,A23U G25A,0.186
15,A23U G25C,0.132
16,A23U G25U,0.216
17,A23G A35G,0.939
18,A23U A31U,0.166
19,A22U U33G,0.174
20,A22U C46A,0.187
21,A22G U53G,0.936
22,A23G A47G,0.171
23,A23G A47C,0.3
24,A23G A47U,0.151

row,Variant,self-cleavage
1,A23C G42U,0.348
2,A23C G42A,0.287
3,A23C G42C,0.422
4,A23U C46U,0.131
5,A24C A41G,0.846
6,A24C A59G,0.0535
7,A23U U33G,0.158
8,A23U G34C,1.12
9,A23G A64U,0.125
10,A23G A64G,0.43
11,A23G U67C,0.218
12,A23G U67A,0.105
13,A22U G32U,0.0918
14,A22U G32C,0.123
15,A22U A44U,0.173
16,A24G A49C,0.163
17,A22U C65U,0.229
18,A22U C65A,0.903
19,A22U C65G,0.266
20,A23C U60C,0.921
21,A23C U60A,0.744
22,A23G G27A,0.496
23,A22G A49C,0.164
24,A22G A49G,0.345

row,Variant,self-cleavage
1,A24G A64C,0.17
2,A22U C48U,0.0855
3,A22U C48G,0.111
4,A24C C38U,0.5
5,A24C C38G,0.186
6,A22G A47U,0.102
7,A22U U63G,0.203
8,A22U U63C,0.0646
9,A23U C37G,0.438
10,A22U A59U,0.143
11,A22G C65A,0.631
12,A24G A61G,0.254
13,A23U A43U,0.123
14,A23U A44G,0.248
15,A23U A44U,0.15
16,A23C U55C,0.184
17,A22G G42A,0.143
18,A24C U60C,0.972
19,A24C U60G,0.609
20,A24C U60A,0.76
21,A23U A71U,0.66
22,A22G G69A,0.385
23,A22G G69U,0.238

# — the RNAGym collection of RNA variant scans (doi:10.7554/elife.80360)
